From the NTF2 design screens of Basanta et al. (2020)

test: protease stability score; higher = more stable; yeast display proteolysis, trypsin and chymotrypsin;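 note: relative to predicted unfolded state with 0 unfolded-like and 1 meaning tenfold more protease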

Sequence | protease stability score
HEENKELEDLLRVWMELVETGDEEELLKLADPDWRLDINGRRIHGRDKVLTWLREHREKLGVDHRHLFLKDVRTVNGRVDANGENEVQVNGKRIVIDIRFHLVVINGRIHMISLRLH | 1.15
DEITTLFRKILELMEHALKTGDWEIHKRLMDPHTKSNVNGVVAIGREELDKLWKELDKQVDHVEDSHFTEFRIQGDYIRIHVQIRIRVGDKFHDLKVDYHLVIINGVMKSSSVTFH | 0.963
SEDEEESEKFLRRLLQAYRTGDEDKLNELIDPNARMDVNGVDNHGWEEISRLLKELRVKHLILHDQKNYDGRAEMDTIVDGRFNGRDDRRKSIIIVIKIDGRWIIESLSIG | 1.1
HEEEEIVHRFVEDWFRHLKTGDFRSLFQLLDPHTRTDINGKSIHGRDTIMTEIIENMIRLGVNHMEVRIHHISVVDGQAHIDIWLIIRVNGKEQAHHVHILAQKINGKWFLKDIRFE | 1.5
NEDEENMKKLLEDFLESLLTGDFDKLTRLADPHARIVQGDKELHGRDEIHEFWKRTMEHIRITHSYVREIDIINGRLHTDIHWDLQVGDKRYSHRVELILLKIDGKWVLHEVEFR | 1.27
SHHEEHLKRLESFLLEATDTGDEDFLTKLIDPHVKLDIDGVELHGREDWLKYFLDLGVDHVRITSSRDINGRLHLTTRMHIGDKITETRVHSEKFDGQWVIKEIIIH | 0.823
DELIKLAHEFLRIMYDSLRTGDEDRVSELLDPHARLDINGKKRHGRKAILDTYREIWFHDIKIKDVDVIDGVIEIDTRLDLEINGVRFEMKTIIFLTKFNGRWVIEEIRIR | 1.21
SEEEKEAEEAMKRSLRSLETGDEELLDEMADPDVRLHVGEFQLIGRESFRKHQRRLTKRFKNMRFHIHRMEVYGEKLSIFGRFHWDGVDTETEIIEVKINGRWFLREVHIR | 0.639
SEEEKRNHEIAKKFIEAFETGDEDFVNHMADPHVKIIVDGVELHGRDQLHHVRKWLEERYPNVRWHLDDMRVQGNKVFLETTLHVGDKTRKSEIILIVINGRLKEIEMRIR | 1.92
SEEDEEFKHHIKLLIESLETGDWRTDRRLADPHVRLEVGDKTIHGMDEYLEFMSEIRFTRLEISSVEIQGDKLHANGETDGIVNGKRVKVESTFIIIKVDGRWIIEHERMH | -0.372
DREEHELLHAIERWLKAEETGDEHELKKLADPHTRTHIRIGDKHIERHGREDMIKVFRELGFKHHHMRSIEIQGDYVHVRGENRFDGQHITLILIFHKFDGRWILREVEVHIR | 1.41
DETEEDARHFVELWRRDMITGDEDRIKEMADPNVRVIIGDKNLHGREDMTEVLRHLRIHRVNVHSIHVQGDWVHITTEVDGRIGDKRHELEVHILTRKVNGRWQLQTLEIG | 1.12
DEEERHTREMADWFITLFLTGNEEIMMELADPNMRLEHISEDEHYEYHGMHDVSRWLHELLLKFKNIRVRLRRIRIQGDYVIIHQDLNYNGKRVHVIIIVHIFDGRIKSLRFEFR | 1.67
SEDRENIYRQIREVEEALKTGDEELMLHLMDPHVRIDINGRHNHGREEMVRFIREIRISLKHVDIHHVQDDENELIVHVRVNLVIEVDGKRREEEDNALFIFVKIDGRWVFSIIRIQ | 1.76
DEEEEHFKWLVKLIFDAYLTGDEEVLYERADPNVRIDFNGVELHGREEMQRHLEHLMKKFKGLRIELKHFHIQGDKMFFQTEYRYNGKTVEARLFFDVVNGRLKRIIIEHR | 1.48
HEEKENIEQFMRDLLHNWTTGNFEKIKEFLDPNTRIDWNGKDIHGRETESEEVKKYGIDHMSIILRHHTVQGDYAHIDTEIKIDINGRKIHIDARIDLLKINGRWVQKHVLYL | 1.3
HEEEEEARDLLKKLLEDFETGNEESLHEYADPNTRTIWDGVEFHGREWMLEIIKQIRVHSVHIHDVRLIDGVLIVKGRMDGDINGQRHTLEVNIFFLKINGRWFFHHMEFE | 2.51
REIEEDVEKALRLWEKTMFTGDEDRFMELADPHTRVTFNGREVIGMEIWKTLVEELGIDVIKDTRIHDVKVQGNKVHVDSHRHVHFNGKTVEIRTRLIATKFDGRWHIESIRFQ | 0.803
TSHEHELRRVAEEIIHAYLTGDWWRWERLFDPHVRVETQVGDKRIERHGREDLIRFLNEMRVHRIEIKTRELYDGRVHIHSRMDYEVDGQRDDVDLHLHFHIVDGKVEEVVITIK | 1.47
SEIDEIAHKMAKEWTKDFVTGDEDHWKRLADPNTRVHINGVELHGRETSSEFKEKLRRHMGVDHMELRVRHVDLFNGRVHMETELIYRVGDKEIRTETHVDLDIVNGRIKEVRYEIR | 0.734
TEEEEQIKEMMEEMQHSYKTGDWRAISELLDPNVRMHIGDKEFHGREDLLRVFKHIRVKHLEIHHVRIIDGRAEVETTYTLVVDGVEHVHHTHIHSRKINGRWHIEEVYIH | 2.02
SEKHEDAHRFYEQYLEALRTGDEDLLTELIDPHVKVEIGDKHYHGRDWMIEILRKRKERFPGLKIIIILRRMHIIGDKVFMDVEVRVHQGEKTETHRFEMIVNKINGRWLVDSIHIE | 2.08
SEDDEHMKEIWRILQHSLETGDFHILSRMADPNAKFDIGDKEIVGMHLWIEELLRYKNRQIRVHYHEMRVYDGKIDSRERYDVKYGDKELTTELRVHARKIDGRWVLEDVRVH | 0.668
SEDEHMFELARHILEETDRTGDWRELEKNVDPNARLRVDGQRQHGRDSVRLLIERADHIHHRRLETFTVVNGVIHFEMHVHVIINGVPYEVEVHMHALKVDGKWIIKKVEMD | 0.479
SEEEHDVERSIKHFLHILETGDWKELYEQMDPNVRIEIDGKFIIGREASVHHFNRYDHHRSRIEIKHVDVYGDKLNVHGHIHEHFSVNGKDITRSMRVILHARKVDGQWIHTEVRYK | 1.32

Sequence | protease stability score
DDSHKKLKHAFELLLHALRTGDEDLLKELIDPEVRILFNGKIFHGREWWEHLLRHIRFKDIHIKNIDIQGDKLRVDSRLHIIIDGRHVDFEAEFYIVKVDGRWFTEEIVIK | 2.21
SEHEEHIHKLMREWIEALLTGDEEHIEHLVDPHDRLNIDGRHYHGRENATKALHQKREQIRIEHIRVDDVKFYGDKVHVEMTVHGNINGKRIEIDTRFIIVVIDGVLRSFEFRHK | 0.122
DEDEEQLHEMVRIFLENMQTGNFEALLNYMDPNAKRRDVQGDKDITYIGREQAKEHDEKLDRHLGVKHFEIKRITIQGEKADIDTRLLFNGQLRDVRIHIIIVNGKLSYLEVQID | 0.897
TEEEKSLKEVLERYIKAIRTGDWEILRHLADPRTRMDINGRDIHGMEEITNELVEQIRRFDHIDFKFHHIEVYGDKADVHGTLVIKINGVEIRHSTKEFWYKVNGRWILHHSEIH | 1.21
SEEEREDEEMFRKLWEAYKTGDEKTLSELVDPNARLRFENREFVGRESIKEFYRRIREKFKGIRIEDVHLRDRKEQGEFIHIDIEINRFVGDKYENVKVEIVLLKFDGRWIIHEIRIK | 2.69
KEEEDIVRHVVEKFIKNLLTGDFHSLMHMADPNVLVNFNGKENIGRELAVKTIERWWKELGVKHFEHFDLHDITIFDGKASLDTRVHGEINGKVHDFKTRIIIQKINGRWTVHSVEFE | 1.22
DEEDEHVKKAAEDFLRWWLTGDESRLLELFDPNMLLIIGDKHIHGRESVVHFFSELRERLGIDHIELEDVHIREVNGRAEFHSHILLHINGQKVKVDVRIHFHKVNGRWLFEHEHVEIR | 1.32
DESEELTEELSRLWLHWYLTGDEEIFKHNFDPNARQDYNGKEIHGRDRVVRFLEELWRMLGAKHFHIRHEEYYGNKVRIEGHITVGDKHRETEIQINIINGKIKEIRIEVK | 2.12
SEEKHDSEKLSHLLDHEWLTGDEESFRKLADPHVKSNINGVRLHGWRELHQFLDEHFNHLGAKIEDSDTEHIHTQGDKAFIHSTFVLLVNGKRIELETFFRSRKFDGRWVLTEVHVH | 0.521
SEDDERWEKFMEELERAAHTGDWRFFKKMIDPEVRIDINGKEIIGMDEYIRHEKERLKRLGHTNVDIQIIIHRTERQGDKLDVDTEIRIHIGDKTITFRMTLILIKVNGVWLIKAMIIH | 1.56
REEEETLDRAIREMLRNMRTGDEHRMRELMDPNVRAHINGREIHGREEVVRHLVEWLKRVDHIEFKLEHQVVYGEKIDLDTRVTIRVNGVELRHKTHQRVHKIDGKWVLDELEIS | 2.05
TEDHRDIYRIVKLLIEFFKTGDFDSLRHLADPNTRLDIGDKHRHGMDLILKEYMDEMHELGVKHFDIKIHDVEIQGDKAQWDLRLHIKVGDKIIELRVILHAVKVNGKWILHKIEFI | 1.38
SEDEESAKFVIQLILHSLRTGDFKIIEDLLDPNARVQINGVELHGRERVHEHWERIDHIEDVRIREVSVQGDKLVLNVERREKQGDYESSTKVIIYARKVNGKWVIDEVEVR | 2.55
DEDEEFAENVVERTIHHTQTGDWRMLKHLLDPHVRMNIDGQELHGREQWIRFMEQIKGATLELHIEDFDSQGEKLTLHVRTILVFDGRKYERHVDLLILKVDGRWHIHQFIVR | 1.41
HEIHELLKRVVDMLRTLWETGDEETWNSLADPNTKFVIGDKEVVGMEEITRIFLHERERADHMKFEVRRIRTVGDKADSHGHLRLDIGNKHVTHEIDLHVRVINGRIKQVELRIH | 1.33
HEDDEMKKKWFEEWERRIHTGDEEEINKLADPHVRLEIGDKTRHGREEFTRYLWEFLYEFGANHVEIRYEEIRIINGVVHIRSRIHIHVDGRHIHLETHLIVFKFDGQWRLHTLHYK | 0.872
SEEEEEFRERLRILYEKLLTGDWRFFLKLADPNVRSIIDGRTWIGRDEFETAMRKFDEDLGFDHTHIRHYHIQGEKVQIHFEVRQGDKRITVEINLVIVNGRYKFVELRLSIH | 1.4
SDVEEMLHRIARLIVHNLFTGDWEDLVRMMDPHARYIVNGKESVGWRRVTEMLRRHHEELRIREIRIRHIEVYNGKAELHLEVNEEVNGREVSLDTRLHVLTINGVIRSIHIEVE | 0.719
SEEEEESRFMFELIEHFLKTGNWEMISKLADPNMKTVINGKTYHGREMLIHEFEKLGADHITIHDYKDIDGQVIIHTRIHVGDKTYDVVIISEKVDGKWHLKEIHIR | 1.99
TEDEDIFRHALEVWLRSFLTGNEEILNHLFDPHARVHIDGKNLHGMEMMVTHRQRHIEEARIRDSDIEHKNVIDGRIHIDIRVHGEVNGQEMDFNVTIIAMKVDGRWLIHSLHVE | 0.265
SENDELNEKLVRDWIISLHTGDEETLRDLLDPHVKVEVGEKRMHGREEYVTHLLHHARRADHIRIEIHQVHNQGDKVNIDGTLHIDVNGKHQHHRVTIIASKVNGKWLIESINIH | 1.03
DEKDNVVEHLARRLIEAELTGDWKFLSELIDPNVRVQVGNKKSHGREEYVHIAEEWWIHEQHIRHVEIQGDKVHLEVETDMVVDGRRVRIEIEIHIHIINGRIKEIRINIV | 0.989
HELEERLEKWFKKFLHNMMTGDEDKLIHLADPHAKFRIDGVESHGRENWSRYVEERHLKLGLENIHVNVHRVHVQGDKIDMTGTLEINGQRVDFHIHIEVVDGRIKRLIIIIE | 0.732
DEDEERIREVVERFLRDWETGDEKSLKHLLDPNVRMIIDGVDIVGREEALRLMKKLVDDLGIKHVHFHRVRLDVQGDKVRSEVDGEFEVGDKHTKVHTLLILRKVDGKWIFESVHMDHK | 2.27
HEDEDLLEELARKYKHHLETGDEHIIRRLVDPHVRIEQGEKKLIGREEFLRILTELLRSWGVTRFEFRIEDFRLQGDKAHMRGSVEVGDFHHDVEIVSRKIDGRWVITHYHEI | 0.118
